In patent US20150196533A1, “METHOD FOR CONCURRENT TREATMENT OF PAIN AND DEPRESSION” (The General Hospital Corporation, priority 2012, published 2015):
“Also recorded” adds a separate entry of the source.

What was measured:
IDO1 = assay: Intra-hippocampal microinjection in naive rats: hippocampal IDO1 mRNA (real-time PCR); assay type: in vivo, rat; settings: 0.1 μg once daily x 7 d into the left hippocampus of naive rats; P<0.05
Procedure: Under brief isoflurane anesthesia, a guide cannula (26 gauge, Plasticsone) was implanted just above the hippocampus (AP: −3.6 mm; left: +2.0 mm from Bregma; depth: −4.0 mm from skin) (Paxinos, G., and Watson, C. 1998. The rat brain in stertaxic coordinates. New York: Academic Press). An injection needle (33 gauge, Plasticsone) was inserted through the guide cannula and drug solution or vehicle (0.5 μl) was slowly injected over 5 min using a Hamilton syringe. Locations of the cannula placement were confirmed at the time of tissue harvest (data not shown).
Total RNA was isolated from hippocampal samples using TRIzol reagent (Invitrogen). Four μg of total RNA was used to synthesize the first strand cDNA using SuperScript III kit (Invitrogen). Four μl of cDNA was put into 20 μl vessel with 1 μl of 20× TaqMan Gene Expression Assay. Taqman Gene Expression Assays (Applied Biosystems) containing primers and a Taqman probe were used to quantify each gene of interest. The genes examined were IL-6 (Rn01410330 m1, M26744.1) and IDO1 (Rn00576778 m1, AF312699.1) for rats and IL-6 (Mm00446190 m1, X54542.1) and IDO1 (Mm00492586 m1, M69109.1) for mice. […] The RNA expression of GAPDH was measured as control.

[1] = test system: IDO1 expression in hippocampal organotypic slice culture; assay: IL-6 exposure of organotypic hippocampal slice culture: IDO1 expression and activity; assay type: cell-based, rat; settings: 100 ng/ml for 24 hours
Source text: According to a modified method (Stoppini, L., Buchs, P. A., and Muller, D. 1991. A simple method for organotypic cultures of nervous tissue. J Neurosci. Methods 37:173-182.; Fu, X., Zunich, S. M., O'Connor, J. C., Kavelaars, A., Dantzer, R., and Kelley, K. W. 2010. Central administration of lipopolysaccharide induces depressive-like behavior in vivo and activates brain indoleamine 2,3 dioxygenase in murine organotypic hippocampal slice cultures. J Neuroinflammation. 7:43) organotypic hippocampal cultures were prepared using hippocampus slices from 5 to 8-day-old Wistar rats. Rat pups were euthanized by decapitation and brains were rapidly removed and the hippocampus was separated from the brain. Hippocampal slices (350 μm in thickness) were made using a Mcllwain tissue chopper (Campden Instruments Ltd) and placed in the Gey's balanced salt solution (Sigma-Aldrich) with 2 mg/ml D-glucose. Slices were then placed on 30-mm Millicell-CM (Millipore) porous (0.4 μm) membranes. These membranes were transferred into six-well culture plates filled with an incubation medium (1 ml) consisting of 50% vol/vol minimal essential medium, 25% heat-inactivated horse serum and 25% HBSS (Invitrogen), supplemented with 25 mM D-glucose. Plates were incubated in a humidified atmosphere of 5% CO2 and 95% air at 37° C. Culture medium was changed 3 times a week. Slices were treated with 100 ng/ml IL-6 or vehicle and collected 24 hours later for assays (Hakkoum, D., Stoppini, L., and Muller, D. 2007. Interleukin-6 promotes sprouting and functional recovery in lesioned organotypic hippocampal slice cultures. J Neurochem. 100:747-757).
Rats were sacrificed under pentobarbital anesthesia. The hippocampus was separated from the brain and immediately stored on dry ice and kept at −80° C. until use. Samples were homogenized in a lysis buffer with SDS containing a cocktail of proteinase inhibitors (Roche). Samples were separated on an SDS-PAGE gel (4%-15% gradient gel; Bio-Rad) and transferred to polyvinylidene difluoride filter (PVDF) membranes (Millipore). Membranes were blocked with 5% nonfat dried milk for 1 hour at room temperature and incubated over night at 4° C. on a rocker with one of following primary antibody: 1:200 IDO1 (Santa Cruz Biotechnology Inc.; rabbit polyclonal antibody), 1:200 IDO1 (Novius Biologicals; rabbit polyclonal antibody), 1:500 JAK2 (Santa Cruz Biotechnology Inc.; rabbit polyclonal antibody), 1:1,000 STAT3 (Millipore; rabbit polyclonal antibody), 1:5,000 p-STAT3 (Abcam; rabbit monoclonal antibody). After membranes were washed with PBS×4, membranes were incubated with 1:8,000 HRP conjugated secondary antibody (Amersham, Biosciences) for 1 hour at room temperature on a rocker. The membranes were washed with PBS×4 and blots were visualized in enhanced Chemiluminescent (ECL) solution (Pierce) for 5 minutes and exposed to hyperfilms (Kodak) for 15 minutes. Blots were again incubated in a Stripping buffer (Pierce) for 15 minutes at room temperature on a rocker and reprobed with 1:12,000 anti-β-actin antibody (Abeam Inc.) as a loading control. Western blots were made in triplicates. Band density was measured and normalized against a loading control band.
Total RNA was isolated from hippocampal samples using TRIzol reagent (Invitrogen). […] Taqman Gene Expression Assays (Applied Biosystems) containing primers and a Taqman probe were used to quantify each gene of interest. […]

B1: IL-6: exogenous IL-6 (recombinant rat IL-6), proinflammatory cytokine (protein, UniProt P20607 25-211, looked up)
Interleukin-6: FPTSQVRRGDFTEDTTHNRPVYTTSQVGGLITYVLREILEMRKELCNGNSDCMNSDDALSENNLKLPEIQRNDGCFQTGYNQEICLLKICSGLLEFRFYLEFVKNNLQDNKKDKARVIQSNTETLVHIFKQEIKDSYKIVLPTPTSNALLMEKLESQKEWLRTKTIQLILKALEEFLKVTMRSTRQT
- hippocampal IDO1 mRNA expression (FIG. 9H) (IDO1): increased IDO1 mRNA expression in the hippocampus; also recorded: up-regulated the hippocampal IDO1 mRNA expression
- IDO1 immunoreactivity (FIG. 8F) [1]: increased IDO1 immunoreactivity; also recorded: increased the expression of IDO1
- IDO1 mRNA expression (real-time PCR; FIG. 8G) ([1]; P<0.05): up-regulated; also recorded: increased the expression of IDO1
- IDO1 protein expression (Western blot; FIG. 8H) ([1]; P<0.05): up-regulated; also recorded: increased the expression of IDO1
- kynurenine/tryptophan ratio in the culture medium (HPLC; FIG. 8I) ([1]; P<0.05): significantly increased; also recorded: increased KYN/TRP ratio
- serotonin/tryptophan ratio in the culture medium (HPLC; FIG. 8I) ([1]; P<0.05): decreased 5-HT/TRP ratio
